Source: patent US20250313641A1 (Amgen, published 2025)
Changes are numbered by the printed parent chain. Names may count otherwise.

Experiments:
[1] = biological target: T1, human IL-2 receptor (IL-2R) on human PBMC subsets (human, UniProt P14784 27-551; P31785 23-369); test: cell-based or functional assay
T1 sequence 1: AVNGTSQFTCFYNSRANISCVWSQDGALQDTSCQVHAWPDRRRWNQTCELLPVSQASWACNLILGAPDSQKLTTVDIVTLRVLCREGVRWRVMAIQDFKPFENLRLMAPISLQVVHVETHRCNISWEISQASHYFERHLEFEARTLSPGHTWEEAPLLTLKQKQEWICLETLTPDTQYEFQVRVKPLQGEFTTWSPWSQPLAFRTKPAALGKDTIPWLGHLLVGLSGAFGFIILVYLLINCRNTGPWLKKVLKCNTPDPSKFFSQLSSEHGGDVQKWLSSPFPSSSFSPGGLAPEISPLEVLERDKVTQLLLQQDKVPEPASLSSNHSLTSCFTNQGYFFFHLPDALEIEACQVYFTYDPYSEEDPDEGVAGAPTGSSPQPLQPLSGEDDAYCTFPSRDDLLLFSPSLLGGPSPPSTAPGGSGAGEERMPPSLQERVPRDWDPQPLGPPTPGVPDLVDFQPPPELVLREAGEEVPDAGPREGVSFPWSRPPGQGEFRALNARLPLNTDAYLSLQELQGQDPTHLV
T1 sequence 2: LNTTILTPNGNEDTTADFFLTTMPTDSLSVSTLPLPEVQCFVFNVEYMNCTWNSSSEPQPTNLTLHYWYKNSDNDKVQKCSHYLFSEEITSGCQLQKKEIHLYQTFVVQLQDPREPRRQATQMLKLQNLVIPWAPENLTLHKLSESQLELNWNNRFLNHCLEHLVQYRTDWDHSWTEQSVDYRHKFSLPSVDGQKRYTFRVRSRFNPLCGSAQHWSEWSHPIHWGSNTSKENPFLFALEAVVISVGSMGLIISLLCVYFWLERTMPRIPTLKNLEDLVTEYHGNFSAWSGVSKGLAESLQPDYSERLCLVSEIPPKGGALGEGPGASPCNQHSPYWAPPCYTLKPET

[2] = biological target: T1, human IL-2 receptor (IL-2R) on human …; test: Flow cytometry on human PBMCs gated on CD8+ T-cells; detection with goat F(ab')2 anti-human IgG-PE; gMFI as fold over background
Experimental: (§1) All washes and dilutions of cells, antibodies, and reagents were performed using flow buffer (1×PBS, 1% BSA, 0.1% NaN3, pH 7.4). All incubations were performed at 4° C. or on ice. Freshly thawed PBMCs were seeded at 100,000 cells/well in a 96-well round bottom plate (Corning) and incubated for 30 minutes with serially diluted test articles in a total volume of 50 μL. Cells were washed twice with 200 μL flow buffer and subsequently stained with a 0.625 μg/mL Goat F (ab′) 2 Anti-Human IgG-PE (Southern Biotech) secondary detection antibody. Fluorescently conjugated anti-CD3 (OKT3), CD4 (OKT4), CD8 (RPA-T8), CD25 (M-A251), CD127 (A019D5), and CD56 (HCD56) antibodies (BioLegend) were also included at 1:20 dilution to enable the characterization of T-cell and NK cell populations. Following a 30-minute incubation, and 2 more washes, the cells were resuspended in a final volume of 120 μL of flow buffer containing 7-AAD viability dye. The cells were analyzed on a BD FACSCelesta™, maximum events were collected, and geometric mean fluorescence intensity was plotted as a fold-over-background (cells incubated with secondary detection antibody and cell lineage marker stains only).
(§2) Cell binding was determined by flow cytometry and reported as geometric mean fluorescent intensity (gMFI) over the gMFI of cells stained only with secondary detection antibody.

[3] = biological target: T1, human IL-2 receptor (IL-2R) on human …; test: cell-based or functional assay; remark: listed apart in the source
[4] = biological target: T1, human IL-2 receptor (IL-2R) on human …; test: cell-based or functional assay; remark: listed apart in the source
[5] = biological target: T1, human IL-2 receptor (IL-2R) on human …; test: Flow cytometry on human PBMCs gated on CD4+ T-cells; detection with goat F(ab')2 anti-human IgG-PE; gMFI as fold over background
Experimental: as §1, §2

[6] = biological target: T2, cynomolgus monkey IL-2 receptor (IL-2R) on cyno PBMC subsets (cynomolgus monkey, UniProt Q38J85 27-551; A0A2K5VGJ6 23-369); test: cell-based or functional assay
T2 sequence (looked up) 1: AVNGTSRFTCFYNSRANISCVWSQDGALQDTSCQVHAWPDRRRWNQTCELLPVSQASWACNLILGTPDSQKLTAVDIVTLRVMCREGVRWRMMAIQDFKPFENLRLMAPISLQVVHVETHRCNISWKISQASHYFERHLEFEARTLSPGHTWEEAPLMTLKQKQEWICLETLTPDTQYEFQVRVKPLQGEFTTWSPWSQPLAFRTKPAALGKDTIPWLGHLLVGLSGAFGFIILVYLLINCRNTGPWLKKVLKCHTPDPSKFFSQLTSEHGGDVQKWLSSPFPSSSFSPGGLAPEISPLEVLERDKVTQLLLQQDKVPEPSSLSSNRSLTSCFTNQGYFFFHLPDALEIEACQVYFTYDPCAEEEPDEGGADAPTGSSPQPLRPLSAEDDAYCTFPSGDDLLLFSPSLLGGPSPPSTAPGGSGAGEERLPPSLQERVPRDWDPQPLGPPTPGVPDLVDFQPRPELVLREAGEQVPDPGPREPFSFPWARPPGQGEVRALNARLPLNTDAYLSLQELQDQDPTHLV
T2 sequence (looked up) 2: T1 sequence 2 with T14A, A16T, T22S, H141R, T228S, A326P

[7] = biological target: T1, human IL-2 receptor (IL-2R) on human …; test: Flow cytometry on human PBMCs gated on CD3-CD56+ NK cells; detection with goat F(ab')2 anti-human IgG-PE; gMFI as fold over background
Experimental: as §1, §2

[8] = biological target: T1, human IL-2 receptor (IL-2R) on human …; test: Flow cytometry on human PBMCs gated on CD4+CD25+CD127lo T-regs; detection with goat F(ab')2 anti-human IgG-PE; gMFI as fold over background
Experimental: as §1, §2

[9] = biological target: T2, cynomolgus monkey IL-2 receptor (IL-2R) …; test: Flow cytometry on cynomolgus PBMCs gated on CD3-CD159a+ NK cells; detection with anti-human IgG-PE; gMFI as fold over background
[10] = biological target: T2, cynomolgus monkey IL-2 receptor (IL-2R) …; test: Flow cytometry on cynomolgus PBMCs gated on CD4+CD25+CD127lo T-regs; detection with anti-human IgG-PE; gMFI as fold over background
[11] = biological target: T2, cynomolgus monkey IL-2 receptor (IL-2R) …; test: cell-based or functional assay; remark: listed apart in the source
[12] = biological target: T1, human IL-2 receptor (IL-2R) on human …; test: cell-based or functional assay; remark: listed apart in the source

B1: HCAb1 (bispecific antibody, IgG1)
heavy 1: not shown
heavy 2: QVQLVESGGGLVKPGGSLRLSCAASGFTFSDYYMSWIRQAPGKGLEWVSYISSSGSTIYYADSVKGRFTISRDNAKNSLYLQMNSLRAEDTAVYYCARGDAVSITGDYRGQGTLVTVSSGGGGDKTHTCPPCPAPELLGGPSVFLFPPKPKDTLMISRTPEVTCVVVDVSHEDPEVKFNWYVDGVEVHNAKTKPCEEQYGSTYRCVSVLTVLHQDWLNGKEYKCKVSNKALPAPIEKTISKAKGQPREPQVYTLPPSRKEMTKNQVSLTCLVKGFYPSDIAVEWESNGQPENNYKTTPPVLKSDGSFFLYSKLTVDKSRWQQGNVFSCSVMHEALHNHYTQKSLSLSPGK
notes: Heavy-chain antibody without light chains, made of two different heavy chains; The IgG1-derived Fc carries SEFL2.2 mutations (R292C, N297G, V302C) and charge-pair substitutions; also called anti-IL2RBG heavy-chain antibody
- pSTAT5 (Human) EC50 [nM], CD4^+ T cells [1]: 22.9 nM
- pSTAT5 (Human) EC50 [nM], CD8^+ T cells [1]: 15.5 nM
- pSTAT5 (Human) EC50 [nM], NK cells [1]: 8.77 nM
- pSTAT5 (Human) EC50 [nM], T-regs [1]: 13.1 nM
- EC50 (read off the curve) [2]: ~20 nM
- Ki67 (Human) EC50 [nM], CD4^+ T cells [3]: 13.2 nM
- Ki67 (Human) EC50 [nM], CD8^+ T cells [3]: 5.17 nM
- Ki67 (Human) EC50 [nM], NK cells [3]: 7.34 nM
- Ki67 (Human) EC50 [nM], T-regs [3]: 0.81 nM
- pSTAT5 (Human) EC50 [nM], CD4^+ T-cell [4]: 34.9 nM
- pSTAT5 (Human) EC50 [nM], CD4^+CD25^+ T-regs [4]: 10.7 nM
- pSTAT5 (Human) EC50 [nM], CD8^+ T-cell [4]: 21.5 nM
- EC50 (read off the curve) [5]: ~30 nM
- pSTAT5 (Cyno) EC50 [nM], CD4^+ T-cell [6]: 7.72 nM
- pSTAT5 (Cyno) EC50 [nM], CD4^+CD25^+ T-regs [6]: 5.37 nM
- pSTAT5 (Cyno) EC50 [nM], CD8^+ T-cell [6]: 3.31 nM
- EC50 (read off the curve) [7]: ~2 nM
- EC50 (read off the curve) [8]: ~10 nM
- EC50 (read off the curve) [9]: ~2 nM
- EC50 (read off the curve) [10]: ~8 nM
- Ki67 (Cyno) EC50 [nM], CD4^+ T cells [11]: 14.7 nM
- Ki67 (Cyno) EC50 [nM], CD8^+ T cells [11]: 14.8 nM
- Ki67 (Cyno) EC50 [nM], NK cells [11]: 5.97 nM
- Ki67 (Cyno) EC50 [nM], T-regs [11]: 1.25 nM
- Ki67 (Human) EC50 [nM], CD4^+ T-cell [12]: 23.7 nM
- Ki67 (Human) EC50 [nM], CD4^+CD25^+ T-regs [12]: 9.26 nM
- Ki67 (Human) EC50 [nM], CD8^+ T-cell [12]: 25.1 nM

B2: HCAb2 (bispecific antibody, human IgG4 S228P, F234A L235A)
heavy 1: QVQLQESSPGLVKPSETLSLTCTVSGGSISSSNWWSWVRQPPGKGLEWIGEISHSGSTNYNPSLKSRVTISVDKSKNQFSLRLSSVTAADTAVYFCGRGSWELTDAFDIRGQGTLVTVSSESKYGPPCPPCPAPEAAGGPSVFLFPPKPKDTLMISRTPEVTCVVVDVSQEDPEVQFNWYVDGVEVHNAKTKPREEQFNSTYRVVSVLTVLHQDWLNGKEYKCKVSNKGLPSSIEKTISKAKGQPREPQVYTLPPSQEEMTKNQVSLSCAVKGFYPSDIAVEWESNGQPENNYKTTPPVLDSDGSFFLVSRLTVDKSRWQEGNVFSCSVMHEALHNHYTQKSLSLSLGK
heavy 2: QVQLVESGGGLVKPGGSLRLSCAASGFTFSDYYMSWIRQAPGKGLEWVSYISSSGSTIYYADSVKGRFTISRDNAKNSLYLQMNSLRAEDTAVYYCARGDAVSITGDYRGQGTLVTVSSESKYGPPCPPCPAPEAAGGPSVFLFPPKPKDTLMISRTPEVTCVVVDVSQEDPEVQFNWYVDGVEVHNAKTKPREEQFNSTYRVVSVLTVLHQDWLNGKEYKCKVSNKGLPSSIEKTISKAKGQPREPQVYTLPPSQEEMTKNQVSLWCLVKGFYPSDIAVEWESNGQPENNYKTTPPVLDSDGSFFLYSRLTVDKSRWQEGNVFSCSVMHEALHNHYTQKSLSLSLGK
- pSTAT5 (Human) EC50 [nM], CD4^+ T-cell [4]: 44.6 nM
- pSTAT5 (Human) EC50 [nM], CD4^+CD25^+ T-regs [4]: 13.2 nM
- pSTAT5 (Human) EC50 [nM], CD8^+ T-cell [4]: 24 nM
- pSTAT5 (Cyno) EC50 [nM], CD4^+ T-cell [6]: 9.36 nM
- pSTAT5 (Cyno) EC50 [nM], CD4^+CD25^+ T-regs [6]: 4.29 nM
- pSTAT5 (Cyno) EC50 [nM], CD8^+ T-cell [6]: 3.13 nM
- Ki67 (Human) EC50 [nM], CD4^+ T-cell [12]: 23.9 nM
- Ki67 (Human) EC50 [nM], CD4^+CD25^+ T-regs [12]: 14.6 nM
- Ki67 (Human) EC50 [nM], CD8^+ T-cell [12]: 36.5 nM
